B1: Gli3(280-478), wild type [modified: [35S]-methionine labelled; [35S]-methionine labelled] [human] / GST-JNK1 [human] (parent complex)
chain 1: SSPRLSARPSRKRTLSISPLSDHSFDLQTMIRTSPNSLVTILNNSRSSSSASGSYGHLSASAISPALSFTYSSAPVSLHMHQQILSRQQSLGSAFGHSPPLIHPAPTFPTQRPIPGIPTVLNPVQVSSGPSESSQNKPTSESAVSSTGDPMHNKRSKIKPDEDLPSPGARGQQEQPEGTTLVKEEGDKDESKQEPEVIY
chain 2: MSRSKRDNNFYSVEIGDSTFTVLKRYQNLKPIGSGAQGIVCAAYDAILERNVAIKKLSRPFQNQTHAKRAYRELVLMKCVNHKNIIGLLNVFTPQKSLEEFQDVYIVMELMDANLCQVIQMELDHERMSYLLYQMLCGIKHLHSAGIIHRDLKPSNIVVKSDCTLKILDFGLARTAGTSFMMTPYVVTRYYRAPEVILGMGYKENVDLWSVGCIMGEMVCHKILFPGRDYIDQWNKVIEQLGTPCPEFMKKLQPTVRTYVENRPKYAGYSFEKLFPDVLFPADSEHNKLKASQARDLLSKMLVIDASKRISVDEALQHPYINVWYDPSEAEAPPPKIPDKQLDEREHTIEEWKELIYKEVMDLEERTKNGVIRGQPSPLAQVQQ
B2: Gli3(280-478), wild type [modified: [35S]-methionine labelled; [35S]-methionine labelled] [human] / GST-JNK3 [human] (parent complex)
chain 1: B1 chain 1
chain 2: MSLHFLYYCSEPTLDVKIAFCQGFDKQVDVSYIAKHYNMSKSKVDNQFYSVEVGDSTFTVLKRYQNLKPIGSGAQGIVCAAYDAVLDRNVAIKKLSRPFQNQTHAKRAYRELVLMKCVNHKNIISLLNVFTPQKTLEEFQDVYLVMELMDANLCQVIQMELDHERMSYLLYQMLCGIKHLHSAGIIHRDLKPSNIVVKSDCTLKILDFGLARTAGTSFMMTPYVVTRYYRAPEVILGMGYKENVDIWSVGCIMGEMVRHKILFPGRDYIDQWNKVIEQLGTPCPEFMKKLQPTVRNYVENRPKYAGLTFPKLFPDSLFPADSEHNKLKASQARDLLSKMLVIDPAKRISVDDALQHPYINVWYDPAEVEAPPPQIYDKQLDEREHTIEEWKELIYKEVMNSEEKTKNGVVKGQPSPSAQVQQ

One assay covers variants of B1. As to the kind of experiment: GST pull-down of in vitro translated protein, quantified; 30 µg GST-JNK1; read off a plot.
Consider chain 1 R11A, chain 1 K12A, chain 1 R13A, chain 1 L15A, chain 1 I17A, for which the response is ~0.2 % of input (axis unlabelled; 5% input bar = 5).

The variants in a further assay derive from B2. As to the kind of experiment: GST pull-down of in vitro translated protein, quantified; 20 µg GST-JNK3; read off a plot.
As to chain 1 R11A, chain 1 K12A, chain 1 R13A, chain 1 L15A, chain 1 I17A, the response was ~0.35 % of input (axis unlabelled; 5% input bar = 5).

(Values after article PMC2928751 (2010).)
